Reference: the DeepSol protein solubility set

Assay: soluble on expression in E. coli; label from the status in PepcDB or PDB records

For “RAETAVQRTEDRYHNLVDTAPIPILLFDRDWKALYANEAAIAFLDADSFTEIAGKKASDFLHPDERDAARKRFQRLMREGVSVPEREYRVMTAEGEVKTATIATAPGYYRGEQVAQAMV”, the “soluble on expression in E. coli” value was “not soluble”.

For “MSLEDSTATFETRNMYFNRDFRDGTSAQQSKRDEWAQGFILNFESGYTDGTVGFGLDALGMLGIKLDSSPDRTDSGLLPTHDDGKAADEYSKLGLTGKVKISQTELKIGTLIPELPTLQPNDGRILPQTFEGGLLTSKEIKGLTFTGGRIDKAKDRNDTNWEDLALNNKNGRFGGTFSADNLALGGLDYQFTDRITGSYHFAQLDDIYRQHFIGMVATQPWGPGTLGADLRLAMSDDAGAAKAGNIDNTTVNGMLSYALGGHKVSAAWQQLSGESAFPYVDGADPYLVNFVQINDFAGADERSWQARYDYNFAALGVPGLTFMTRYISGDNVSRAAGGEGKEWERNTELKYVVQSGPLKNVAVRLRNATFRSNFARDADEVRLLVSYSVALWEGHHHHHH”, the “soluble on expression in E. coli” value was “soluble”.

For “SHMLEDPCTSKKVRAARTLLAKNLSFNITEDELKEVFEDALEIRLVSQDGKSKGIAYIEFKSEADAEKNLEEKQGAEIDGRSVSLYYTGEKGGTRG”, the “soluble on expression in E. coli” value was “soluble”.

In the case of “MNNENMLSDNSTQTSQINETIDQPIIYILDTNILLHEPFAFLSFKEHDVVVPMTVLEELDSIKDRRKDVSRDARVAIRALEDTLRDASPEQVLAGVKLPQNDDQHPSGSLAIINDYALEKTAHTLSFNENDNRIINAALHIQKKTPNKKIVLVTKDINMRLKAKGAGLAHVEDYRTDQLIDDIQFLTKGYHKFEGDFWQQIQSVDSETEGRNTTHYVSRETVPSTYINEYLLDDSGTFAGKVTGWDDDKLAILDLGRERLLAKNAWGIHPKNIYQGMAMDALLDPTIDLVILTGPAGSGKTLLALASALEQVIERGLYDKIIVTRSTPEIAESIGFLPGTEEEKMAPWLAAITDSLEVLHQQDESMHGSLNYIMDKANIQFKSVNFMRGRSIQNALVLLDECQNLTAAQLKTIITRCGEGTKLVCSGNLAQIDSNYLTAVTSGLTYIVERFKDFPGSATVNLNGVVRSRLASFAEENL”, the “soluble on expression in E. coli” value is reported as “soluble”.

With “MRNIDFSPLYRHAIGFDRLFNLVENSANKPSQQNGYPPYNIEQKDENNYRITMAVAGFSEDALTISQNEHMLIVSGDITSSEIKPTYVYQGIAERNFERKFQLADYVTVSAASMENGLLHIDLVREVPEAVQARKIAINK” the “soluble on expression in E. coli” value was “not soluble”.

For “GMQPETSAQYQHRFSQAIRGGEAADGLPQDRLNVYIRLIRNNIHSFIDRCYTETRQYFDSKEWSRLKEGFVRDARAQTPYFQEIPGEFLQYCQSLPLSDGILALMDFEYTQLLAEVAQIPDIPDIHYSNDSKYTPSPAAFIRQYRYDVTHDLQEAETALLIWRNAEDDVMYQTLDGFDMMLLEIMGSSALSFDTLAQTLVEFMPKADNWKNILLGKWSGWIEQRIIIPSLSAISENMEGNSPSQNHLSA”, the “soluble on expression in E. coli” value was “soluble”.

In the case of “MGHHHHHHGGHMSLIISSLTNPNFKVGLPKVIAEVCDYLNTLDLNALENGRHDINDQIYMNVMEPETAEPSSKKAELHHEYLDVQVLIRGTENIEVGATYPNLSKYEDYNEADDYQLCADIDDKFTVTMKPKMFAVFYPYEPHKPCCVVNGKTEKIKKLVVKVPVKLIEGGS”, the “soluble on expression in E. coli” value is reported as “soluble”.

In the case of “GPLGSPEFPGEFYIPPEPSNDAIEIFSSGIASGIHFSKYNNIPVKVTGSDVPQPIQHFTSADLRDIIIDNVNKSGYKIPTPIQKCSIPVISSGRDLMACAQTGSGKTAAFLLPILSKLLEDPHELELGRPQVVIVSPTRELAIQIFNEARKFAFESYLKIGIVYGGTSFRHQNECITRGCHVVIATPGRLLDFVDRTFITFEDTRFVVLDEADRMLDMGFSEDMRRIMTHVTMRPEHQTLMFSATFPEEIQRMAGEFLKNYVFVAIGIVGGACSDVKQTIYEVNKYAKRSKLIEILSEQADGTIVFVETKRGADFLASFLSEKEFPTTSIHGDRLQSQREQALRDFKNGSMKVLIATSVASRGLDIKNIKHVINYDMPSKIDDYVHRIGRTGRVGNNGRATSFFDPEKDRAIAADLVKILEGSGQTVPDFLRTC”, the “soluble on expression in E. coli” value is reported as “soluble”.

In the case of “MYPADFASQLNVLTLAEMKKTIHDILDFRDEDIWMLFGTLPVFPCLKDDEDQKLLSRLRNANNVTTRNDPDGRSRLNVNVFTGNVIVTDFGDETGTISNIQKDKLTDVFDKWLSSDLAKSLNCHCSEFSCLGPNVLVKNMYYPNMDFKDNERHMHKQPQIIQF”, the “soluble on expression in E. coli” value is reported as “not soluble”.

In the case of “MSRDLLGLEGKIVMVTGAGRGFGRAIAHGYGRNGATVIAVDPDVELATGVASEVEALGATAIPIRGDMSVVLDVTSTFEKVEELFGLLDGIVHVTTAESKTPFVELLEGEWYDLMSQDVKSSLYVLQQGLRHLAGGGFVTIVLPPAARIEPHTVSVRKAVEGLIEGATRTFPGVRVNGVVPSRDPVGDPYDLPLVRAALGLGSMVSEGIRGVVLEVQLPEPPLEFEPYAALRELP”, the “soluble on expression in E. coli” value is reported as “soluble”.

With “MKVLFRSDSSSQIGFGHIKRDLVLAKQYSDVSFACLPLEGSLIDEIPYPVYELSSESIYELINLIKEEKFELLIIDHYGISVDDEKLIKLETGVKILSFDDEIKPHHCDILLNVNAYAKASDYEGLVPFKCEVRCGFSYALIREEFYQEAKENRKKKYDFFICMGGTDIKNLSLQIASELPKTKIISIATSSSNPNLKKLQKFAKLHNNIRLFIDHENIAKLMNESNKLIISASSLVNEALLLKANFKAICYVKNQESTATWLAKKGYEVEYKYLEHHHHHH” the “soluble on expression in E. coli” value was “soluble”.

With “MITLREFKEENTAQLTHILNEPEVVKYLSSKIPKPDTLQDAQWWISTGSKFGIVKAIECNGSLIGCIGADRGEFEYQRSAEIGYWIAKDYWRQGVATQAISELIPLIFTTTDIVRLFASVFSENTASMRVLDKCGLKLEAIHKKAIYKDGKFYDNHIFSILKT” the “soluble on expression in E. coli” value was “not soluble”.

With “MGSDKIHHHHHHMSLTRLNIEAFRNIQSAQLIPAPGINLIYGQNGSGKTSILEAIYFLGMGRSFRSHLSQRVINNDDDKLTLFATLNLARGDSKIGLRRFRSGETEVRIDGEKVKRLSTLAETLPIQVITPESFSLLFEGPKSRRQFIDWGAFHADPQFYGAWTNVRRVLKQRNQLLRNGSAYSNIQFWDQEFVRYAEQVTEIRNHYVDSLNELLKGIIGEFLPSVDVKVSFTRGWDSKTDFAELLENQYSRDLATGHTVSGPHKADLRLRVGTLPAQDALSRGQLKLLVCALRIAQGKLLKQQIDKHSIYLVDDLPSELDAQHRQLLLKQLTDTGAQVFVTAIDPAAIVDSLHTPPSRMFHVEQGRVTVIE” the “soluble on expression in E. coli” value was “not soluble”.

In the case of “MSGFRKDELIPVIIDIHGEKRKMFEDIADTVLRRVLDEEENECPPIESRGSSTSSFSTTPSSSASPLSINQLLSSSFSQPPAPQLPVPLAFNPFQLALYQSLVANNTLAFPVFGGPPSIFPLLVPPPQPQPTVESIELLKILQNMLAKQKK”, the “soluble on expression in E. coli” value is reported as “not soluble”.

With “GPGHAGIFTFEEPVTHVSESIGIMEVKVLRTSGARGNVIVPYKTIEGTARGGGEDFEDTCGELEFQNDEIVKTISVKVIDDEEYEKNKTFFLEIGEPRLVEMSEKKALLLNELGGFTITGKYLYGQPVFRKVHAREHPIPSTVITIAEEYDDKQPLTSKEEEERRIAEMGRPILGEHTKLEVIIEESYEFKS” the “soluble on expression in E. coli” value was “soluble”.

In the case of “MIELKHVTFGYNKKQMVLQDINITIPDGENVGILGESGCGKSTLASLVLGLFKPVKGEIYLSDNAVLPIFQHPLTSFNPDWTIETSLKEALYYYRGLTDNTAQDQLLLQHLSTFELNAQLLTKLPSEVSGGQLQRFNVMRSLLAQPRVLICDEITSNLDVIAEQNVINILKAQTITNLNHFIVISHDLSVLQRLVNRIIVLKDGMIVDDFAIEELFNVDRHPYTKELVQAFSY”, the “soluble on expression in E. coli” value is reported as “not soluble”.

For “MPSSRRVRSRCCAFGITKRFACIRPACQRARMDAQMTNFETRLRENAAKTEALLGHLLSGEARADEITRPQNLLEAMRHGVLNGGKRLRPFLVIESVALLGGDAEAGLHVGAALECLHCYSLVHDDLPAMDDDDLRRGQPTVHRKFDEATAILAGDSLLTLAFDIIASDDNPLAAERKAALVISLARAAGIGGMAGGQALDLAAEKKAPDEDGIITLQAMKTGALLRFACEAGAIIAGSNQAERQRLRLFGEKIGLSFQLADDLLDLTADAATMGKATGKDAARGKGTLVALRGEAWAREKLQE”, the “soluble on expression in E. coli” value was “soluble”.
